A word on the EC50: it is the concentration that produces a half-maximal response. Read a high EC50 as weaker potency.

Some targets named below: glucagon receptor (UniProt P47871); GLP-1 receptor (UniProt P43220); GIP receptor (UniProt P48546).
Holding throughout (experiment): cell-based or functional assay

Some results are limits rather than exact numbers.

glucagon receptor, sequence (P47871 26-477 limits assumed): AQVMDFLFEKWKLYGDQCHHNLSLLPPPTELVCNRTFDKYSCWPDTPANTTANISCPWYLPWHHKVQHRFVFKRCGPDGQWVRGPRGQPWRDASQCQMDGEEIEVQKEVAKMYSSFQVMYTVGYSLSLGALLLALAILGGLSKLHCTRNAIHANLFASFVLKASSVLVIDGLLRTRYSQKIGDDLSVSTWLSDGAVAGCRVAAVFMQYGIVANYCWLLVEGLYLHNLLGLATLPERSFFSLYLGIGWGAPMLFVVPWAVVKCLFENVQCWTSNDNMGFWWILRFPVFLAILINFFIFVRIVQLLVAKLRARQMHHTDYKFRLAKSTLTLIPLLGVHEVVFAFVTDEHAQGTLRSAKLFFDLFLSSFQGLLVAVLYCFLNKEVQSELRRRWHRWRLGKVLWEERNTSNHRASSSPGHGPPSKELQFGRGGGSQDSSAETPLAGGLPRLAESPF
GIP receptor, sequence (P48546 22-466): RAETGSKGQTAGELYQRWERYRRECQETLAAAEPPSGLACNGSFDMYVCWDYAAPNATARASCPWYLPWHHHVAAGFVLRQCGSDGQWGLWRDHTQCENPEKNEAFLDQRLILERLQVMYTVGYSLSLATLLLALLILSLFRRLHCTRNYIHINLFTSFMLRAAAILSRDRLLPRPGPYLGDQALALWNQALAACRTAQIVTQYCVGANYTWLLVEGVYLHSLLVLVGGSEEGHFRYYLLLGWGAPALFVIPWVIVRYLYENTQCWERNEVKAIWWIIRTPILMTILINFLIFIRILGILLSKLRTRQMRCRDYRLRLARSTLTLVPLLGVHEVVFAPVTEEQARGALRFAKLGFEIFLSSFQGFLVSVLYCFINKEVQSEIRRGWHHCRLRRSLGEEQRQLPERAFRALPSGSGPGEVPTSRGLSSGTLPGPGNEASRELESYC
GLP-1 receptor, sequence (P43220 24-463 limits assumed): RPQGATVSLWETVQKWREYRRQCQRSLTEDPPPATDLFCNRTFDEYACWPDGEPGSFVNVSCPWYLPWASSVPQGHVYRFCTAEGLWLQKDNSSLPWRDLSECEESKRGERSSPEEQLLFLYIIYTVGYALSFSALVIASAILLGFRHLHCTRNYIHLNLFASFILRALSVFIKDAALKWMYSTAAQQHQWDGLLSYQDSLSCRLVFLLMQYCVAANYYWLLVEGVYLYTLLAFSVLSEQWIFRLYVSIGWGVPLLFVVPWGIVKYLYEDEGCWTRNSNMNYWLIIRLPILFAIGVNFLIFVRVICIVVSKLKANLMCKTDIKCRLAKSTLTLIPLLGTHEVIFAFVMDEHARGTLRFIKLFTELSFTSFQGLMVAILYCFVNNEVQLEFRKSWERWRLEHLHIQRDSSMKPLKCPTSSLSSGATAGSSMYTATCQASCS

The substance Liraglutide (peptide) came in with a % activity at the glucagon receptor in the assay with glucagon receptor of 0.04%.
As for mt-103 (peptide), the values for the EC50 with GLP-1 receptor, in the assay with glucagon receptor and in the assay with GIP receptor were 26.9 nM, more than 4000 nM and 0.242 nM, respectively.
